The target of data set [1] is SAMS peptide. The following applies: scale: % of the SAMS peptide phosphotransferase activity of rat liver.
For data set [2], the system named is AMPK. Put plainly: AMPK protein kinase assay: phosphorylation of synthetic peptide substrates by partially purified enzyme (DE-52 step). In kind it is biochemical, porcine. The following applies: for rate of phosphorylation relative to the SAMS peptide: partially purified enzyme (purified to the DE-52 step), % of the rate of the SAMS peptide; for Km: peptide as substrate of AMPK, read-out: apparent Km as substrate for the AMPK. The text has this: A series of synthetic peptides including analogues of proteins […] to be substrates for the AMPK were screened with partially purified enzyme (purified to the DE-52 step). These included the myosin light chains, ADR1, glycogen synthase and phospholemman. The phospholemman peptides tested were poor substrates and not investigated further. The glycogen synthase peptide, PLSRTLSVAAKK (SEQ ID NO: 46) was phosphorylated in an AMP-dependent manner at approximately 40% of the rate of the SAMS peptide, however, this peptide is an excellent substrate for a number of protein kinases, including protein kinase C and calmodulin dependent protein kinase II (Kemp, B. E. and Pearson, R. B. (1991) in Protein Phosphorylation, Hunter, T and Sefton, B. M. (eds) Methods in Enzymology, 200, 121-134). The myosin light chain peptides tested were phosphorylated with rates approximately 15% of the SAMS peptide.
The AMPK was assayed in accordance with procedures described by Davies et al. (1989) Eur. J. Biochem. 186, 123-128 using the SAMS peptide substrate, HMRSAMSGLHLVKRR-amide (SEQ ID NO: 49). The enzyme was diluted in diluting buffer (20 mM HEPES pH 7.0, 0.1% (v/v) Triton X-100) prior to assay and the reactions were initiated by adding […] diluted enzyme to the reaction mixture containing peptide substrate. The reactions were stopped by withdrawing […] aliquots and applying to P81 papers in accordance with procedures described by Pearson, R. B., Mitchelhill, K. I., and Kemp, B. E. (1993) in Protein Phosphorylation: A Practical Approach, Hardie, G. D. (ed) Oxford University Press, pp 265-291.

For data set [3], the system named is AMPK α1. In kind it is biochemical, rat. The following applies: alpha1 immune precipitates, 200 µM.
For data set [4], the system named is AMPK α2. In kind it is biochemical, rat. The following applies: alpha2 immune precipitates.
Data set [5] addresses acetyl CoA carboxylase.
In data set [6] the target is SAMS peptide.
Data set [7] addresses glycogen synthase peptide.
The target of data set [8] is ADR1(225-234) peptide (Saccharomyces cerevisiae (strain ATCC 204508 / S288c) (Baker's yeast)) (UniProt P07248).
Data set [9] deals with SAMS peptide. This is another data set of the same source.
The target in data set [10] is myosin light chain peptides.
Data set [11] addresses ADR1(222-234)P229 peptide.

“And” between values parts separate entries of the source, which are not always exact repeats. Equal values may be shown once. Where no end group is shown, it is not given here.

For orientation: Km means the substrate concentration at which the rate is half of its maximum.

Compound “AMPK α1 isoform holoenzyme purified from liver by peptide substrate affinity chromatography (63 kDa catalytic subunit, 40 kDa and 38 kDa subunits) (from UniProt P54645)” registered an SAMS peptide phosphotransferase activity in [1] above 94.
As to “ADR1(225-234): synthetic ADR1 peptide screened as AMPK substrate (LTRRASFSAQ)”, in data set [2], the “rate of phosphorylation relative to the SAMS peptide” value was “approximately 50%”.
As for `Nc1ncnc2c1ncn2[C@@H]1O[C@H](COP(=O)(O)O)[C@@H](O)[C@H]1O` [5'-AMP], the “activation by 5'-AMP” value in data set [3] is 2-3 fold; in data set [4], 3-4 fold.
Turning to “LKKLTLRASFSAQ (not fully specified) [ADR1(222-234)^P229]”, in data set [2], the “rate of phosphorylation relative to the SAMS peptide” value is “approximately 50%”; the Km is ~3 µM and 3 µM.
As to “PLSRTLSVAAKK [glycogen synthase peptide]”, the “rate of phosphorylation relative to the SAMS peptide” value in data set [2] is “approximately 40%”.
Turning to “HMRSAMSGLHLVKRR-amide (HMRSAMSGLHLVKRR-NH2) [SAMS peptide]”, the Km in data set [2] is 33 µM.
Regarding “AMPK α2 isoenzyme of rat liver (α2 with β and γ subunits), from the unbound fraction of the peptide substrate affinity column (from UniProt Q09137)”, the apparent specific activity in data set [5] and in [6] was above 20 fold lower throughout.
For the compound “AMPK, partially purified enzyme (purified to the DE-52 step)”, the rate of phosphorylation (% of the rate of the SAMS peptide) in data set [7] amounted to 40. Moreover, the rate of phosphorylation (% of the SAMS peptide) in data set [8] was found to be 50; in data set [10] it was 15. In addition, the apparent Km of phosphorylation in [9] is 33 µM; in [11], 3 µM.

Source of the values: patent publication US6124125A, “AMP activated protein kinase” (Trustees of Dartmouth College, priority 1996, dated 2000).
